# Reference: the supplement of paper PMC9942255
# Where “and” joins values, the source holds several entries; their conditions need not be identical. Equal entries are not always repeated.
# Tested on: Bacillus subtilis DB104 (SP-AmyQ fusion secretion)
# Experiment: AmyQ secretion efficiency, weighted average sort bin (1 = best secretion, 10 = worst) (bin number (weighted average, 1-10)); higher = lower secretion efficiency
# Outline: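 The secretion score gives the average bin number weighted by read frequency and normalised to beads per bin, with low-abundance sequences excluded. Bins were 10 equally populated green/red fluorescence ratio fractions of occupied ~65 nL alginate beads, sorted by large-particle flow cytometry. The beads held fluorescein-starch and about 0.3 cells each of an amyE-integrated B. subtilis DB104 library fusing designed signal peptides to mature AmyQ, and they were grown about 13 h at room temperature and stained with nile red before sorting and Illumina sequencing.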
row,Sequence,AmyQ secretion efficiency
1,MKRFLIGAGVAAVILSGWFIADHQTHSQEM,7.62 and 6.01 and 6.59
2,MKRFLIGAGVAAVILSGWFIADHQTHVQEM,6.76
3,MKRFLIGAGVAAVILSGWTIADHQTHSQEM,5.66
4,MKRFSTAYKQQRQQCSAAVFLIGAPSRALGAEV,7.51
5,MKRFSTAYLKKRKLCSAAVFLIGAPSRALGAEV,6.51
6,MKRFSTAYLLLGILCSAAVFLIGAPSRALAAEV,2.35
7,MKRFSTAYLLLGILCSAAVFLIGAPSRALCAEV,3.3
8,MKRFSTAYLLLGILCSAAVFLIGAPSRALGADD,3.2
9,MKRFSTAYLLLGILCSAAVFLIGAPSRALGAPD,2.52
10,MKRFSTAYLLLGILCSAAVFLIGAPSRALGAPK,1.81
11,MKRFSTAYLLLGILCSAAVFLIGAPSRALGAPV,1.61
12,MKRFSTAYLLLGILCSAAVFLIGAPSRALGARR,7.6
13,MKRFSTAYLLLGILCSAAVFLIGAPSRALGDED,6.23
14,MKRFSTAYLLLGILCSAAVFLIGAPSRALGKKK,7.04
15,MKRFSTAYLLLGILCSAAVFLIGAPSRALNAEV,5.97
16,MKRFSTAYLLLGILCSAAVFLIGAPSRCLGAEV,3.15
17,MKRFSTAYLLLGILCSAAVFLIGAPSRTLGAEV,3.24
18,MKRFSTAYLLLGILCSAAVFLIGAPSSALGAEV,3.5
19,MKRFSTAYLLLGILCSAAVFLIKRPSRALGAEV,6.46
20,MKRFSTAYLLLGILCSAAVFLILSAGAPSRALGAEV,3
21,MKRFSTAYLLLGILCSAAVFLIPQPGRALGAEV,2.89
22,MKRFSTAYLLLLGILCSAAVFLIGAPSRALGAEV,3.05
23,MKRFSTAYTTGGILCSAAVFLIGAPSRALGAEV,8.46
24,MKRFSTLLLGILCSAAVFLIGAPSRALGAEV,2.96
25,MKRILFLLSTLLIGIMLLTFAPSAFAKQD,1.83

row,Sequence,AmyQ secretion efficiency
1,MKRILLSSALSFGMLISAVPALAAGT,2.79
2,MKRIRILALGAALTIAPLSFASAEEN,3.38
3,MKRIRIPMKLALGAALTIAPLSFASAEEN,4.57
4,MKRIRIPMTLALGAALTIAPLDEDASAEEN,3.3
5,MKRIRIPMTLALGAALTIAPLDEEDDDASAEEN,5.27
6,MKRIRIPMTLALGAALTIAPLDKASAEEN,3.1
7,MKRIRIPMTLALGAALTIAPLKRKASAEEN,7.5
8,MKRIRIPMTLALGAALTIAPLLSFASAEEN,4.21
9,MKRIRIPMTLALGAALTIAPLSASAEEN,2.88
10,MKRIRIPMTLALGAALTIAPLSFAFTASAEEN,3.82
11,MKRIRIPMTLALGAALTIAPLSFASAADE,2.12
12,MKRIRIPMTLALGAALTIAPLSFASAAKR,4.18
13,MKRIRIPMTLALGAALTIAPLSFASAAPK,1.85
14,MKRIRIPMTLALGAALTIAPLSFASAASN,1.02
15,MKRIRIPMTLALGAALTIAPLSFASAATD,2.9
16,MKRIRIPMTLALGAALTIAPLSFASAEED,3.29
17,MKRIRIPMTLALGAALTIAPLSFASAKKR,3.26
18,MKRIRIPMTLALGAALTIAPLSFASCEEN,4.65
19,MKRIRIPMTLALGAALTIAPLSFASFEEN,6.34
20,MKRIRIPMTLALGAALTIAPLSFASGEEN,3.92
21,MKRIRIPMTLALGAALTIAPLSFASKEEN,6.64
22,MKRIRIPMTLALGAALTIAPLSFASLEEN,6.43
23,MKRIRIPMTLALGAALTIAPLSFASMEEN,6.12
24,MKRIRIPMTLALGAALTIAPLSFASNEEN,7.9
25,MKRIRIPMTLALGAALTIAPLSFASPEEN,8.17

row,Sequence,AmyQ secretion efficiency
1,MKRIRIPMTLALGAALTIAPLSFASQEEN,7.06
2,MKRIRIPMTLALGAALTIAPLSFASREEN,6.16
3,MKRIRIPMTLALGAALTIAPLSFASSEEN,4.71
4,MKRIRIPMTLALGAALTIAPLSFASTEEN,8.25
5,MKRIRIPMTLALGAALTIAPLSFASVEEN,6.71
6,MKRIRIPMTLALGAALTIAPLSFASWEEN,6.97
7,MKRIRIPMTLALGAALTIAPLSFASYEEN,6.51
8,MKRIRIPMTLALGAALTIAPLSFDSAEEN,7.3
9,MKRIRIPMTLALGAALTIAPLSFESAEEN,5.54
10,MKRIRIPMTLALGAALTIAPLSFFSAEEN,6.31
11,MKRIRIPMTLALGAALTIAPLSFGSAEEN,4.51
12,MKRIRIPMTLALGAALTIAPLSFHSAEEN,7.02
13,MKRIRIPMTLALGAALTIAPLSFISAEEN,3.01
14,MKRIRIPMTLALGAALTIAPLSFKSAEEN,6.9
15,MKRIRIPMTLALGAALTIAPLSFLSAEEN,4.62
16,MKRIRIPMTLALGAALTIAPLSFNSAEEN,7.4
17,MKRIRIPMTLALGAALTIAPLSFPATVPGAGGTTASAEEN,4.38
18,MKRIRIPMTLALGAALTIAPLSFPSAEEN,6.68
19,MKRIRIPMTLALGAALTIAPLSFQSAEEN,6.97
20,MKRIRIPMTLALGAALTIAPLSFRSAEEN,7.87
21,MKRIRIPMTLALGAALTIAPLSFSSAEEN,4.73
22,MKRIRIPMTLALGAALTIAPLSFTGFGPAGASAEEN,3.89
23,MKRIRIPMTLALGAALTIAPLSFTSAEEN,3.52
24,MKRIRIPMTLALGAALTIAPLSFVSAEEN,2.58
25,MKRIRIPMTLALGAALTIAPLSFWSAEEN,6.56

row,Sequence,AmyQ secretion efficiency
1,MKRIRIPMTLALGAALTIAPLSFYSAEEN,5.14
2,MKRIRIPMTLALGAALTIAPLTVATASFASAEEN,4.63
3,MKRIRIPMTLALGAALTIAPLVFASAEEN,4.55
4,MKRIRIPMTLALGAALTIAPLVLTVFAALSSFASAEEN,6.39
5,MKRIRIPMTLALGAALTISFASAEEN,6.71
6,MKRIRIPMTLALSAALIIALLSFASAEEN,5.6
7,MKRIRIPMTLKKGAALTIAPLSFASAEEN,7.82
8,MKRIRIPMTLKRKRKRTIAPLSFASAEEN,8.12
9,MKRIRIPMTLRKKRALTIAPLSFASAEEN,7.44
10,MKRIRIPMTLSTLALGAALTIAPLSFASAEEN,3.35
11,MKRIRIPMTYRYQSALTIAPLSFASAEEN,7.35
12,MKRIRIPMTYTGTAALTIAPLSFASAEEN,7.36
13,MKRITIIITMFIAAAVISLTGTAEAAEK,2.84
14,MKRITINIITMFIAAAVIEEDEEAEAAEK,5.79
15,MKRITINIITMFIAAAVIFLVVFTSSGTAEAAEK,2.77
16,MKRITINIITMFIAAAVIKRRRRKKAEAAEK,6.55
17,MKRITINIITMFIAAAVISLTGTAEAAPK,2.12
18,MKRITINIITMFIAAAVISLTGTAEAASS,2.16
19,MKRITINIITMFIAAAVIVFSLTGTAEAAEK,2.39
20,MKRITINIKRRKRRAAVISLTGTAEAAEK,7.96
21,MKRITINIRRKKIAAAVISLTGTAEAAEK,6.82
22,MKRITINITIITMFIAAAVISLTGTAEAAEK,2.69
23,MKRITINSNFSNIITMFIAAAVISLTGTAEAAEK,3.07
24,MKRKIVRMTLPLLIVCLAFSSFSASARAASE,2.21
25,MKRKKCSICCAAVLLAGGAAQAEAV,6.17

row,Sequence,AmyQ secretion efficiency
1,MKRKKIMIFLTSFMLLAMTGQTALAKDV,3.1
2,MKRKKKKASLVLFAVVFVFAVKGAPAKAETH,2
3,MKRKKKRLCVMMLLFSAIASFPVSAQAKDQ,3.18
4,MKRKKLCLWFTVFSLFLVLLPGKALGAVD,4.65
5,MKRKKLCVMMLLFSAIASFPVSAQAKDQ,2.65
6,MKRKKLLSTLLIGIMLLTFAPSAFAKQD,1.35
7,MKRKKLLVSLRVWMVFLMNWVTPDRKTAAAAVY,7.43
8,MKRKKMSGLLLVAVGFSFTQVMVHAGET,6.25
9,MKRKKRGSKRTSALSLGLLVSAPTASFAAES,6.79
10,MKRKKVLLSALLLLLFAFEPSASGKKL,2.93
11,MKRKLKKSLAISALSLGLLVSAPTASFAAES,3.49
12,MKRKLKRKKAISALSLGLLVSAPTASFAAES,4.1
13,MKRKLLSSLAISALSLGLLVKRRKKKSFAAES,7.18
14,MKRKLLSSLAISALSLGLLVRKRTASFAAES,6.75
15,MKRKLLSSLAISALSLGLLVSAPTAGFAAES,3.25
16,MKRKLLSSLAISALSLGLLVSAPTALFAAES,2.49
17,MKRKLLSSLAISALSLGLLVSAPTASFAASS,1.56
18,MKRKLLSSLAISALSLGLLVSAPTASFAATR,2.21
19,MKRKLLSSLAISALSLGLLVSAPTASFADDE,5.75
20,MKRKLLSSLAISALSLGLLVSAPTASFARKR,3.11
21,MKRKLLSSLAISALSLGLLVSAPTASFGAES,3.96
22,MKRKLLSSLAISALSLGLLVSAPTASFVAES,6.45
23,MKRKLLSSLAISALSLGLLVSAPTATFAAES,3.04
24,MKRKLLSSLAISALSLGLLVSAPTAWFAAES,9.22
25,MKRKLLSSLAISALSLGLLVSGPTTSFAAES,3.9
